Tests used:
[1] = biological target: T1, recombinant soluble human HLA-G β2M MHC class I complex, monomer (human); test: SPR (Biacore T200), antibody captured via anti-Fc, HLA-G complex injected, 25 C, 1:1 fit
T1 construct: His tagged; also called HLA-G-0003
Method: Binding kinetics of anti-HLA-G antibodies to human HLA-G, human HLA-G degrafted and human HLA-A2 were investigated by surface plasmon resonance using a BIACORE T200 instrument (GE Healthcare). All experiments were performed at 25° C. using PBS Buffer (pH 7.4+0.05% Tween20) as running buffer and PBS Buffer (+0.1% BSA) as dilution buffer. Anti-human Fc (JIR009-005-098, Jackson) or anti-rat Fc (JIR112-005-071, Jackson) or anti-Mouse Fc (JIR115-005-071, Jackson) antibodies were immobilized on a Series S CM5 Sensor Chip (GE Healthcare) at pH 5.0 by using an amine coupling kit supplied by GE Healthcare. Anti-HLA-G antibodies were captured on the surface leading to a capturing response of 50-200 RU. HLA-G molecules were injected for 180 s at 30 μl/min with concentrations from 2.5 up to 800 nM (2×1:2 and 4×1:3 dilution series) onto the surface (association phase). The dissociation phase was monitored for 300-600 sec by washing with running buffer. […] Bulk refractive index differences were corrected by subtracting the response obtained from a mock surface. Blank injections were subtracted (double referencing). The derived curves were fitted to a 1:1 Langmuir binding model using the BIAevaluation software.
The above table summarizes the antibody affinities and t1/2 values against wt and degrafted HLA-G as assessed by Surface plasmon resonance (Biacore) analysis. Binding kinetics of anti-HLA-G antibodies to human HLA-G, human HLA-G degrafted and human HLA-A2 were investigated by surface plasmon resonance using a BIACORE T200 instrument (GE Healthcare). All experiments were performed at 25° C. using PBS Buffer (pH 7.4+0.05% Tween20) as running buffer and PBS Buffer (+0.1% BSA) as dilution buffer. Anti-human Fc (JIR009-005-098, Jackson) or anti-rat Fc (JIR112-005-071, Jackson) or anti-Mouse Fc (JIR115-005-071, Jackson) antibodies were immobilized on a Series S CM5 Sensor Chip (GE

[2] = biological target: T2, recombinant soluble human HLA-G β2M MHC class I complex, trimer (human); test: competition ELISA, immobilised HLA-G trimer, antibody titrated, competitor c-myc ILT2
T2 construct: also called HLA-G Trimer; fraction A8
Method: (§1) The ELISA was set up by coating the biotinylated antigen wt HLA-G to strepdavidin plates. After incubation and washing steps, the respective antibodies were bound in a concentration range from 8-0 μg in 1:3 dilution steps. C-myc tagged ILT-2 or -4 receptor was added to the HLA-G-antibody complexes. After incubation and washing steps, detection of bound receptor was carried out by anti-cmyc-antibody-POD conjugates. IC50 values were determined from the resulting inhibition curves at the antibody concentrations generating the half-maximal inhibition. In case of the non-biotinylated HLA-G dimer and trimer antigens, immobilization was carried out by random coating on assay plates.

[3] = biological target: T3, recombinant soluble human HLA-G β2M MHC class I complex, dimer (human); test: ELISA, HLA-G dimer coated on plate
T3 construct: also called HLA-G Dimer; fraction A9
Method: (§2) The above table summarizes the binding of different rat anti-human HLA-G monoclonal antibodies, derived from wt protein IMS. Shown are the relative EC50 values [ng/ml] of the respective binding to rec. wt monomeric, dimeric and trimeric HLA-G proteins as assessed by ELISA. The ELISA was set up by coating the biotinylated wt HLA-G antigen to strepdavidin plates. After incubation and washing steps, the respective antibodies were bound in a concentration range from 10-0 μg in 1:2 dilution steps. Detection of bound antibodies was carried out by anti-Fc-antibody-POD conjugates. EC50 values were determined from the resulting binding curves at the antibody concentrations generating the half-maximal signal. In case of the non-biotinylated HLA-G dimer and trimer antigens, immobilization was carried out by random coating on assay plates.

[4] = biological target: T1, recombinant soluble human HLA-G β2M MHC …; test: blocking ELISA, Fc tagged ILT4 coated, 100 nM antibody, soluble HLA-G monomer
Method: (§3) The ELISA was set up by coating the Fc tagged ILT2 and ILT4 respectively to Maxisorp microtiter plates. After incubation and washing steps, the respective antibodies were added at a concentration of 100nM. Soluble His tagged monomeric, dimeric or trimeric HLA-G was added to the wells. After incubation and washing steps, detection of bound receptor was carried out by anti-His-antibody-POD conjugates.

[5] = biological target: T2, recombinant soluble human HLA-G β2M MHC …; test: competition ELISA, immobilised HLA-G trimer, antibody titrated, competitor c-myc ILT4
Method: as §1

[6] = biological target: T1, recombinant soluble human HLA-G β2M MHC …; test: competition ELISA, immobilised biotinylated wt HLA-G, competitor c-myc ILT4
Method: The above table summarizes the blocking of interaction between rec. HLA-G proteins (monomer and oligomers) to its receptors ILT2 and ILT4 as assessed by ELISA.
as §1

[7] = biological target: T1, recombinant soluble human HLA-G β2M MHC …; test: blocking ELISA, Fc tagged ILT2 coated, 100 nM antibody, soluble HLA-G monomer
Method: as §3

[8] = biological target: T2, recombinant soluble human HLA-G β2M MHC …; test: blocking ELISA, Fc tagged ILT2 coated, 100 nM antibody, soluble HLA-G trimer
Method: as §3

[9] = biological target: T2, recombinant soluble human HLA-G β2M MHC …; test: ELISA, HLA-G trimer coated on plate
Method: as §2

Binder	Kd [1]	koff [1]	kon [1]	t ½ [1]	IC50 [2]	EC50 [3]	% inh. ILT4 [4]	IC50 [5]	% inh. ILT4 [6]	% inh. ILT2 [7]	% inh. ILT2 [8]	EC50 [9]
HLA-G-0037 (antibody, V domains shown) VH: QVQLKESGPGLVQPSQTLSLTCSVSGFSLTTYSVSWVRQPPGKGLEWIGAIWSGGSTDYNSALKSRLRISRDTSKSQVLLKMNSLQTEDRAMYFCVRMNNKFGYWYFDLWGPGTMVTVSS VL: DTVLTQSPTLAVSPGEKITISCRASETVSTMLHWYQQKPGQQPKLLISLASHLESGVPARFTGSGSGTDFTLTIDPVEADDTATYYCQQTWNDPLTFGSGTKLEIK	6.75 nM	0.000882 s⁻¹	131000 M⁻¹ s⁻¹	13 min	0.1 nM	2.01 nM	1%	> 200 nM	41%	73%	93%	2.5 nM
HLA-G-0033 (antibody, V domains shown) VH: EVQLVETGGGLVQSGRSLKLSCVASGFTFNDYWMTWTRQAPGKGLEWVASITNSGGRTYYLDSVRGRFTISRDDAQNTLYLQMNSLRSEDTATYYCTKERIYLTAYWFFDFWGPGTMVTVSS VL: DTILTQSPALAVSPGERVTISCRASESVSTLIHWYQQKPGQRPKLLIYLASHLESGVPARFSGSGSGTDFTLTIDPVEADDTATYYCQQSWNEPRTFGGGTKLELK	31.5 nM	0.00165 s⁻¹	52300 M⁻¹ s⁻¹	7 min	0.5 nM	1.98 nM	14%	61.5 nM	44.6%	75%	93%	1.54 nM
HLA-G-0032 (antibody, V domains shown) VH: QVQLQQSGAELVKPGSSVKISCKASGYSFPSYDMHWIKQQPGNGLEWIGWIYPGNGNTKYNQKFNGKASLTADKSSSTAYMQLSSLTSEDSAVYFCAKPTVATRYNWFAYWGQGTLVTVSS VL: QIVLTQSPALMSASPGEKVTMTCSASSSVNYMHWYQQKPRSSPKPWIYLTSNLASGVPARFSGSGSGTSYSLTISTMEAEDAATYYCQQWSSNLPITFGSGTKLEIK	14.9 nM	0.00076 s⁻¹	51200 M⁻¹ s⁻¹	15 min	0.4 nM	1.36 nM	12%	71.3 nM	43%	75%	93%	1.76 nM

— patent US20200102389A1 (Hoffmann-La Roche, published 2020)
